{
  "source": "patent US20130281314A1",
  "key": {"BRCC36 (human) [1]": {"molecular_target": "BRCC36 (human) (UniProt P46736)", "sequence (P46736 2-316 limits assumed)": "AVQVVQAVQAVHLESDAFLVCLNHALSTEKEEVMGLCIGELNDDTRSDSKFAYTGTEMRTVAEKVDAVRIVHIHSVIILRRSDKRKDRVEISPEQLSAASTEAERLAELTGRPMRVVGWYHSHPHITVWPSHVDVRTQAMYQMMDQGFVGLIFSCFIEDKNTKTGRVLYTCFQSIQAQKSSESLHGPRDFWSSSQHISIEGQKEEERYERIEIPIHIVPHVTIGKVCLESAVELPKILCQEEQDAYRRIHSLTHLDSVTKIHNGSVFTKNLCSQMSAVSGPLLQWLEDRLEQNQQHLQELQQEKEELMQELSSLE", "assay": "anti-HA IP-MS, HEK293T cells"}, "OTUB1 (human) [2]": {"molecular_target": "OTUB1 (human) (UniProt Q96FW1)", "assay": "anti-HA IP-MS, HEK293T cells"}, "UCHL1 [3]": {"molecular_target": "UCHL1 (UniProt P09936)", "assay": "anti-HA IP-MS, HEK293T cells"}, "UCHL5 (human) [4]": {"molecular_target": "UCHL5 (human) (UniProt Q9Y5K5)", "assay": "anti-HA IP-MS, HEK293T cells"}, "USP10 [5]": {"molecular_target": "USP10", "assay": "anti-HA IP-MS, HEK293T cells"}, "USP11 (human) [6]": {"molecular_target": "USP11 (human) (UniProt P51784)", "assay": "anti-HA IP-MS, HEK293T cells"}, "USP13 (human) [7]": {"molecular_target": "USP13 (human) (UniProt Q92995)", "assay": "anti-HA IP-MS, HEK293T cells"}, "USP14 (human) [8]": {"molecular_target": "USP14 (human) (UniProt P54578)", "assay": "anti-HA IP-MS, HEK293T cells"}, "USP15 (human) [9]": {"molecular_target": "USP15 (human) (UniProt Q9Y4E8)", "assay": "anti-HA IP-MS, HEK293T cells"}, "USP19 (human)": {"molecular_target": "USP19 (human) (UniProt O94966)", "assay": "anti-HA IP-MS, HEK293T cells"}, "USP24 (human) [10]": {"molecular_target": "USP24 (human) (UniProt Q9UPU5)", "assay": "anti-HA IP-MS, HEK293T cells"}, "USP25 (human) [11]": {"molecular_target": "USP25 (human) (UniProt Q9UHP3)", "sequence (Q9UHP3 whole entry)": "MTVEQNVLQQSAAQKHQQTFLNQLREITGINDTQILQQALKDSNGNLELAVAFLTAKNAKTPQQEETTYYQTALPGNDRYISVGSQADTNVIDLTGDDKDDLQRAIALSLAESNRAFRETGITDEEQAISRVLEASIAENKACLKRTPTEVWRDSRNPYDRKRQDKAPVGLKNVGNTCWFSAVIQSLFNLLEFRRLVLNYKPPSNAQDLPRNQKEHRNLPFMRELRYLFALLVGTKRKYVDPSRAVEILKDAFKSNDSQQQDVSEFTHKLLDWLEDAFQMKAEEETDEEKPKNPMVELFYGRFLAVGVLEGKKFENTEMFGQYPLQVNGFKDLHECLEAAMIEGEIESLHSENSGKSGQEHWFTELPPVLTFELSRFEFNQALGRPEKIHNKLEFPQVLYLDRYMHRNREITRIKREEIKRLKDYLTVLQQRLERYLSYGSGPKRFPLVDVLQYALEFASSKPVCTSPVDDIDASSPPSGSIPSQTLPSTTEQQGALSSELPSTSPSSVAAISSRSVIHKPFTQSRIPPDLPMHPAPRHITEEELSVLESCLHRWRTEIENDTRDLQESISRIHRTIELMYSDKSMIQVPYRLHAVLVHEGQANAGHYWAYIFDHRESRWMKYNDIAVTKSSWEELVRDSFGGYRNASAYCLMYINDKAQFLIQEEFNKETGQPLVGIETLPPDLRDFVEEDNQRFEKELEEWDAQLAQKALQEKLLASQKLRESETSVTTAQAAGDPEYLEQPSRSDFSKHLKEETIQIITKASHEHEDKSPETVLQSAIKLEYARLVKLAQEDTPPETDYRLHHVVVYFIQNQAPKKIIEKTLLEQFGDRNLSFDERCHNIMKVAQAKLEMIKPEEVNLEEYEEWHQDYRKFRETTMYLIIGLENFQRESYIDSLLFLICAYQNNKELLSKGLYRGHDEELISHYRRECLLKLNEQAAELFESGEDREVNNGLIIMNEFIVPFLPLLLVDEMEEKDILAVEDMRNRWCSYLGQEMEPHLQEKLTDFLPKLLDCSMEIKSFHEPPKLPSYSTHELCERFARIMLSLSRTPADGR", "assay": "anti-HA IP-MS, HEK293T cells"}, "USP34 [12]": {"molecular_target": "USP34", "assay": "anti-HA IP-MS, HEK293T cells"}, "USP47 (human) [13]": {"molecular_target": "USP47 (human) (UniProt Q96K76)", "assay": "anti-HA IP-MS, HEK293T cells"}, "USP8 (human) [14]": {"molecular_target": "USP8 (human) (UniProt P40818)", "sequence (P40818 whole entry)": "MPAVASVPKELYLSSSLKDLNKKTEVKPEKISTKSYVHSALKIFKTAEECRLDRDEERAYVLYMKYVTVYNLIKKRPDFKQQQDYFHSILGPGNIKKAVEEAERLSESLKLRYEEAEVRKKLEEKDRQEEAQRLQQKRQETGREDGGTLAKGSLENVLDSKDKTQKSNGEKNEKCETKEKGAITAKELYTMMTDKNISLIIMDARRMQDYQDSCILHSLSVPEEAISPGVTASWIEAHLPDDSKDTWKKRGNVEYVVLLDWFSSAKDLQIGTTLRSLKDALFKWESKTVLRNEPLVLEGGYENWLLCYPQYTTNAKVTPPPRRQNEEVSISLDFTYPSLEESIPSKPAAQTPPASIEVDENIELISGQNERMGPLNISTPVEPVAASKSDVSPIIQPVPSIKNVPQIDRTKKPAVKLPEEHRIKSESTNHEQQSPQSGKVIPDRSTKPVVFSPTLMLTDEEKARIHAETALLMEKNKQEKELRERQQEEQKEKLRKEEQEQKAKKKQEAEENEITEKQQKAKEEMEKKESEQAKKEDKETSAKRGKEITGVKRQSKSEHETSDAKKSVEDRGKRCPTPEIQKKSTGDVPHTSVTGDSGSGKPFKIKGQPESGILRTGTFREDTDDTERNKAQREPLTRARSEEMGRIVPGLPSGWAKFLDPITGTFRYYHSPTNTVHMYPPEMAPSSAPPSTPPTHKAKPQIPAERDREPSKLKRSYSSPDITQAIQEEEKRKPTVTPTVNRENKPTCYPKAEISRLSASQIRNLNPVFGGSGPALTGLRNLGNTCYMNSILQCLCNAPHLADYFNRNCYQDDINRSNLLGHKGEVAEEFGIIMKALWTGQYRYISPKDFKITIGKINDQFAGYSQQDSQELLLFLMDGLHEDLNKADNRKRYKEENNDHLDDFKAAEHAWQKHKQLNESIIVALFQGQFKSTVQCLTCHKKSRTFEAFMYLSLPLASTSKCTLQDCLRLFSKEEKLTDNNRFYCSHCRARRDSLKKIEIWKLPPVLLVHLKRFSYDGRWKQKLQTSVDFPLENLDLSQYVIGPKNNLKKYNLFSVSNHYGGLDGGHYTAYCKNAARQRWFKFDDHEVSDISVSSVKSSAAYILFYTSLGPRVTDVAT", "assay": "anti-HA IP-MS, HEK293T cells"}, "USP9X (human) [15]": {"molecular_target": "USP9X (human) (UniProt Q93008)", "sequence (Q93008 whole entry)": "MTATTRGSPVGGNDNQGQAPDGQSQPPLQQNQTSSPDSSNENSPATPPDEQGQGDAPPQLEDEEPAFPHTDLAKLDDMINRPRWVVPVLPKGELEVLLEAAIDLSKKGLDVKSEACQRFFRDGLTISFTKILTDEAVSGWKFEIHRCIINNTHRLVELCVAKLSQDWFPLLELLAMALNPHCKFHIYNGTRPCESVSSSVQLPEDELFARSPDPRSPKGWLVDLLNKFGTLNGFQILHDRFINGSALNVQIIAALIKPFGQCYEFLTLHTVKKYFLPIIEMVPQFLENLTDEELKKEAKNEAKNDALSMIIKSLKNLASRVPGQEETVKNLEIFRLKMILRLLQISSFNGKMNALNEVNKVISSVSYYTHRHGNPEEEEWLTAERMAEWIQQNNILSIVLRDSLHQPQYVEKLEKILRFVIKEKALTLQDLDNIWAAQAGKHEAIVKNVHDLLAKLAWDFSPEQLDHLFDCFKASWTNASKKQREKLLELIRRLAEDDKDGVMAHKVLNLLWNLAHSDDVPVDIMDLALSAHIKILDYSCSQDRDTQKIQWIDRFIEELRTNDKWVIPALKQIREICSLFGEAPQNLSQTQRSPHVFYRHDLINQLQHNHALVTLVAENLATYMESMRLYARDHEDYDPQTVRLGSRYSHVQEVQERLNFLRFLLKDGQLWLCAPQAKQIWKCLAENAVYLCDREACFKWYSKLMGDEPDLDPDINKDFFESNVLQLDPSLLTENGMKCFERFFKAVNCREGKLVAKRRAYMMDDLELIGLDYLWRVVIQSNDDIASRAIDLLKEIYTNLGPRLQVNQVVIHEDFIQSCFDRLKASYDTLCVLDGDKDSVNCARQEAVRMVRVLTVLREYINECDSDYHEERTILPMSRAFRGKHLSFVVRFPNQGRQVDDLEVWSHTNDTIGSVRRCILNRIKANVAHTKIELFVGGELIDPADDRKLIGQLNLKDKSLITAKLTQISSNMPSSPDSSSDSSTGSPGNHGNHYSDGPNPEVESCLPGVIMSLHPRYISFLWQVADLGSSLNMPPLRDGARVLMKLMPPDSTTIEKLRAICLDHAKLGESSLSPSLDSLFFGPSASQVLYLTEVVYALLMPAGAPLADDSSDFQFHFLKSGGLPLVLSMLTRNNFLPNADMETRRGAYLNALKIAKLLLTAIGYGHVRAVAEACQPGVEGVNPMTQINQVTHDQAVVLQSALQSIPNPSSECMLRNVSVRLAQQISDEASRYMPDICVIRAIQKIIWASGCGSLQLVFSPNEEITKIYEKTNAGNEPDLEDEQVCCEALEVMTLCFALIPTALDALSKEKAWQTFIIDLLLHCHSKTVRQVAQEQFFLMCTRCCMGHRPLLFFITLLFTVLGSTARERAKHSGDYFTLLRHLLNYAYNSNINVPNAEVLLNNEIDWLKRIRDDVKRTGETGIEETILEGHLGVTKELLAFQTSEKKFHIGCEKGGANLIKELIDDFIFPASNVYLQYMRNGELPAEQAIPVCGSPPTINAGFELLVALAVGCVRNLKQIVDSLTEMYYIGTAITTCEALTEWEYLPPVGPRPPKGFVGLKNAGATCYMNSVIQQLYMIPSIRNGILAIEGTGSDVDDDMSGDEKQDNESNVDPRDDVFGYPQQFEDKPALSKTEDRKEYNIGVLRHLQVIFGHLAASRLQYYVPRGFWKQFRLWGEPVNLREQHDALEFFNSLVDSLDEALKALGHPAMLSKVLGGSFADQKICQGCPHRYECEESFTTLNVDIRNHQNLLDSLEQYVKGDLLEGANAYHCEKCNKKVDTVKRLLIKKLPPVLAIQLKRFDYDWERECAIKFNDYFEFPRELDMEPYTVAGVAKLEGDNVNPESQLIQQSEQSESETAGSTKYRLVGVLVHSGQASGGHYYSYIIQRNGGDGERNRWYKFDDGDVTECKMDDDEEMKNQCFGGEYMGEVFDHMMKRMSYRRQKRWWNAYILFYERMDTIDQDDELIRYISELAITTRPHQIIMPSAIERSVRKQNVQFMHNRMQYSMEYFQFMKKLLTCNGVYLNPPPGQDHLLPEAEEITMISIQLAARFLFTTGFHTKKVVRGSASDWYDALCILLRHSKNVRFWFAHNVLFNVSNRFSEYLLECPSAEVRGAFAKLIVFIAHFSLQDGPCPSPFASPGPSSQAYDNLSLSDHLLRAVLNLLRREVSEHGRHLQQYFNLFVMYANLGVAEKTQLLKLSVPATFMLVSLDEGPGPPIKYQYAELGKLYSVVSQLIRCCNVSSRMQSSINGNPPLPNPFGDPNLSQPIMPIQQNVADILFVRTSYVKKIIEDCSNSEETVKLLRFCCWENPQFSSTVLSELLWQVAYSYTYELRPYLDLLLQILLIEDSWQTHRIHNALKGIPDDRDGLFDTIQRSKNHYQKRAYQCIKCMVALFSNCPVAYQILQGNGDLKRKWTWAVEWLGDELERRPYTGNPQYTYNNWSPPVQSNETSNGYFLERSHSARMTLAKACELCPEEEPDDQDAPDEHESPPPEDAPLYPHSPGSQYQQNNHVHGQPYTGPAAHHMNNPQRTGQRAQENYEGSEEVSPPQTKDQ", "assay": "anti-HA IP-MS, HEK293T cells"}, "BRCC36 (human) [16]": {"molecular_target": "BRCC36 (human) (UniProt P46736)", "assay": "anti-HA IP-MS, WT HCT116 cells"}, "OTUB1 (human) [17]": {"molecular_target": "OTUB1 (human) (UniProt Q96FW1)", "assay": "anti-HA IP-MS, WT HCT116 cells"}, "UCHL1 [18]": {"molecular_target": "UCHL1 (UniProt P09936)", "assay": "anti-HA IP-MS, WT HCT116 cells"}, "UCHL5 (human) [19]": {"molecular_target": "UCHL5 (human) (UniProt Q9Y5K5)", "assay": "anti-HA IP-MS, WT HCT116 cells"}, "USP10 [20]": {"molecular_target": "USP10", "assay": "anti-HA IP-MS, WT HCT116 cells"}, "USP11 (human) [21]": {"molecular_target": "USP11 (human) (UniProt P51784)", "assay": "anti-HA IP-MS, WT HCT116 cells"}, "USP13 (human) [22]": {"molecular_target": "USP13 (human) (UniProt Q92995)", "assay": "anti-HA IP-MS, WT HCT116 cells"}, "USP14 (human) [23]": {"molecular_target": "USP14 (human) (UniProt P54578)", "assay": "anti-HA IP-MS, WT HCT116 cells"}, "USP15 (human) [24]": {"molecular_target": "USP15 (human) (UniProt Q9Y4E8)", "assay": "anti-HA IP-MS, WT HCT116 cells"}, "USP24 (human) [25]": {"molecular_target": "USP24 (human) (UniProt Q9UPU5)", "assay": "anti-HA IP-MS, WT HCT116 cells"}, "USP25 (human) [26]": {"molecular_target": "USP25 (human) (UniProt Q9UHP3)", "assay": "anti-HA IP-MS, WT HCT116 cells"}, "USP34 [27]": {"molecular_target": "USP34", "assay": "anti-HA IP-MS, WT HCT116 cells"}, "USP47 (human) [28]": {"molecular_target": "USP47 (human) (UniProt Q96K76)", "assay": "anti-HA IP-MS, WT HCT116 cells"}, "USP8 (human) [29]": {"molecular_target": "USP8 (human) (UniProt P40818)", "assay": "anti-HA IP-MS, WT HCT116 cells"}, "USP9X (human) [30]": {"molecular_target": "USP9X (human) (UniProt Q93008)", "assay": "anti-HA IP-MS, WT HCT116 cells"}},
  "data": [
    {"substance": "HA-UbΔGG", "values": [
      {"measurement": "total peptides (unique peptides)", "setting": "BRCC36 (human) [1]", "value": 0, "unit": "peptides"},
      {"measurement": "total peptides (unique peptides)", "setting": "OTUB1 (human) [2]", "value": 9, "unit": "peptides"},
      {"measurement": "total peptides (unique peptides)", "setting": "UCHL1 [3]", "value": 3, "unit": "peptides"},
      {"measurement": "total peptides (unique peptides)", "setting": "UCHL5 (human) [4]", "value": 9, "unit": "peptides"},
      {"measurement": "total peptides (unique peptides)", "setting": "USP10 [5]", "value": 6, "unit": "peptides"},
      {"measurement": "total peptides (unique peptides)", "setting": "USP11 (human) [6]", "value": 4, "unit": "peptides"},
      {"measurement": "total peptides (unique peptides)", "setting": "USP13 (human) [7]", "value": 0, "unit": "peptides"},
      {"measurement": "total peptides (unique peptides)", "setting": "USP14 (human) [8]", "value": 4, "unit": "peptides"},
      {"measurement": "total peptides (unique peptides)", "setting": "USP15 (human) [9]", "value": 1, "unit": "peptides"},
      {"measurement": "total peptides (unique peptides)", "setting": "USP19 (human)", "value": 54, "unit": "peptides"},
      {"measurement": "total peptides (unique peptides)", "setting": "USP24 (human) [10]", "value": 20, "unit": "peptides"},
      {"measurement": "total peptides (unique peptides)", "setting": "USP25 (human) [11]", "value": 2, "unit": "peptides"},
      {"measurement": "total peptides (unique peptides)", "setting": "USP34 [12]", "value": 1, "unit": "peptides"},
      {"measurement": "total peptides (unique peptides)", "setting": "USP47 (human) [13]", "value": 2, "unit": "peptides"},
      {"measurement": "total peptides (unique peptides)", "setting": "USP8 (human) [14]", "value": 1, "unit": "peptides"},
      {"measurement": "total peptides (unique peptides)", "setting": "USP9X (human) [15]", "value": 40, "unit": "peptides"},
      {"measurement": "total peptides (unique peptides)", "setting": "BRCC36 (human) [16]", "value": 1, "unit": "peptides"},
      {"measurement": "total peptides (unique peptides)", "setting": "OTUB1 (human) [17]", "value": 10, "unit": "peptides"},
      {"measurement": "total peptides (unique peptides)", "setting": "UCHL1 [18]", "value": 0, "unit": "peptides"},
      {"measurement": "total peptides (unique peptides)", "setting": "UCHL5 (human) [19]", "value": 6, "unit": "peptides"},
      {"measurement": "total peptides (unique peptides)", "setting": "USP10 [20]", "value": 8, "unit": "peptides"},
      {"measurement": "total peptides (unique peptides)", "setting": "USP11 (human) [21]", "value": 10, "unit": "peptides"},
      {"measurement": "total peptides (unique peptides)", "setting": "USP13 (human) [22]", "value": 1, "unit": "peptides"},
      {"measurement": "total peptides (unique peptides)", "setting": "USP14 (human) [23]", "value": 3, "unit": "peptides"},
      {"measurement": "total peptides (unique peptides)", "setting": "USP15 (human) [24]", "value": 7, "unit": "peptides"},
      {"measurement": "total peptides (unique peptides)", "setting": "USP24 (human) [25]", "value": 1, "unit": "peptides"},
      {"measurement": "total peptides (unique peptides)", "setting": "USP25 (human) [26]", "value": 34, "unit": "peptides"},
      {"measurement": "total peptides (unique peptides)", "setting": "USP34 [27]", "value": 0, "unit": "peptides"},
      {"measurement": "total peptides (unique peptides)", "setting": "USP47 (human) [28]", "value": 0, "unit": "peptides"},
      {"measurement": "total peptides (unique peptides)", "setting": "USP8 (human) [29]", "value": 3, "unit": "peptides"},
      {"measurement": "total peptides (unique peptides)", "setting": "USP9X (human) [30]", "value": 12, "unit": "peptides"}
    ]}
  ]
}
